Source: patent publication US20230330254A1, “ANTI-GLP1R ANTIBODY-TETHERED DRUG CONJUGATES COMPRISING GLP1 PEPTIDOMIMETICS AND USES THEREOF” (Regeneron Pharmaceuticals, Inc., priority 2022, published 2023)
Like-named read-outs stand apart in the source and are kept apart here.

Experiments:
Assay in all cases: cell-based or functional assay
[1] = target: full-length human glucagon receptor on HEK293/CRE-Luc/hGCGR cells (human) (UniProt P47871)
[2] = target: full-length cynomolgus GLP1R on HEK293/CRE-Luc/mfGLP1R cells (cynomolgus) (UniProt F8V479)
[3] = target: full-length human gastric inhibitory polypeptide receptor on HEK293/CRE-Luc/hGIPR cells (human) (UniProt P48546)
Chain of full-length human gastric inhibitory polypeptide receptor on HEK293/CRE-Luc/hGIPR cells (human) (P48546 22-466): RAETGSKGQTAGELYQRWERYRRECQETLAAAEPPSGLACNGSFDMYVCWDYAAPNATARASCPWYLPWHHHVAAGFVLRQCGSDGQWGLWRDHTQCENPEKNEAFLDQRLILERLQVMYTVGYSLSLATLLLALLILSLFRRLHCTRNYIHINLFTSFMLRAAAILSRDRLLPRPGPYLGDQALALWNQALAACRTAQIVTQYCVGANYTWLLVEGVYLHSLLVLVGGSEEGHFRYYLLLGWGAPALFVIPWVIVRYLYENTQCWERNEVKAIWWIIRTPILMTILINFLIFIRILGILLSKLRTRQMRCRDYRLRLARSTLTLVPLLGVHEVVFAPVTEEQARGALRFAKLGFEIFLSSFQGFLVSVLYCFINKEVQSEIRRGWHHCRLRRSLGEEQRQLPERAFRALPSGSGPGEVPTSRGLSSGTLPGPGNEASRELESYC

[4] = target: full-length human GLP1R on HEK293/CRE-Luc/hGLP1R cells (human) (UniProt P43220)
Chain of full-length human GLP1R on HEK293/CRE-Luc/hGLP1R cells (human) (P43220 24-463): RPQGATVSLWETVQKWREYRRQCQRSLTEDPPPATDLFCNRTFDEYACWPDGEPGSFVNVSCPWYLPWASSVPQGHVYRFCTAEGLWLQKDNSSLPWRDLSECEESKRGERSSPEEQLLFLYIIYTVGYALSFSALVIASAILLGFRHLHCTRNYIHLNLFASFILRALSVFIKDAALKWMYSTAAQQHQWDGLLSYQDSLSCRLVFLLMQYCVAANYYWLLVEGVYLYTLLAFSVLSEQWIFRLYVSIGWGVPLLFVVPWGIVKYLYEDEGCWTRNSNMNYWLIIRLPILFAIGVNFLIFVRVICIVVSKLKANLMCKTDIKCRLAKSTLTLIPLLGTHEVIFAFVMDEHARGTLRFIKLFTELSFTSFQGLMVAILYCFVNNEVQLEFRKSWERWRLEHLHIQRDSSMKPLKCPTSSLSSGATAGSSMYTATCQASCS

[5] = target: full-length human glucagon-like peptide 2 receptor on HEK293/CRE-Luc/hGLP2R cells (human) (UniProt O95838)
Chain of full-length human glucagon-like peptide 2 receptor on HEK293/CRE-Luc/hGLP2R cells (human) (O95838 whole entry): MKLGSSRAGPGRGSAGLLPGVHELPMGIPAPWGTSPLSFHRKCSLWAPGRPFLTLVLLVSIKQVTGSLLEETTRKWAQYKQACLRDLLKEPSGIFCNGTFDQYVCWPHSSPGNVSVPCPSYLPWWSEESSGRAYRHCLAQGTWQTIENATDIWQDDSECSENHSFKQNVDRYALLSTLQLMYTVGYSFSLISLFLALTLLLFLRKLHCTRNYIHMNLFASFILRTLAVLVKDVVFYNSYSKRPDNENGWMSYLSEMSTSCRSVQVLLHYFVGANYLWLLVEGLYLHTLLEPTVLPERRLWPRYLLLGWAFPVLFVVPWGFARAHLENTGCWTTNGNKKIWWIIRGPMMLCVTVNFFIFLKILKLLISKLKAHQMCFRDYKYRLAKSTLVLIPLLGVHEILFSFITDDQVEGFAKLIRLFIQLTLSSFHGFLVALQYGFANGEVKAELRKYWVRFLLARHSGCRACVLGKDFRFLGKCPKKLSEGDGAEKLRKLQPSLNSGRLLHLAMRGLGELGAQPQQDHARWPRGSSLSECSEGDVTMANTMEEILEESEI

[6] = target: full-length human gastric inhibitory polypeptide receptor on HEK293/CRE-Luc/hGIPR cells (human) (UniProt P48546); remark: listed apart in the source
[7] = target: full-length human glucagon-like peptide 2 receptor on HEK293/CRE-Luc/hGLP2R cells (human) (UniProt O95838); remark: listed apart in the source
[8] = target: full-length human glucagon receptor on HEK293/CRE-Luc/hGCGR cells (human) (UniProt P47871); remark: listed apart in the source
[9] = target: full-length cynomolgus GLP1R on HEK293/CRE-Luc/mfGLP1R cells (cynomolgus) (UniProt F8V479); remark: listed apart in the source
Target sequence in this assay (F8V479 entry or part of it): as the sequence (P43220 24-463) above, with S112N, F120S, S202G, L205V, L237F, W241R, I249V counted along it

[10] = target: full-length human GLP1R on HEK293/CRE-Luc/hGLP1R cells (human) (UniProt P43220); remark: listed apart in the source

Chain of full-length human glucagon receptor on HEK293/CRE-Luc/hGCGR cells (human) (P47871 26-477): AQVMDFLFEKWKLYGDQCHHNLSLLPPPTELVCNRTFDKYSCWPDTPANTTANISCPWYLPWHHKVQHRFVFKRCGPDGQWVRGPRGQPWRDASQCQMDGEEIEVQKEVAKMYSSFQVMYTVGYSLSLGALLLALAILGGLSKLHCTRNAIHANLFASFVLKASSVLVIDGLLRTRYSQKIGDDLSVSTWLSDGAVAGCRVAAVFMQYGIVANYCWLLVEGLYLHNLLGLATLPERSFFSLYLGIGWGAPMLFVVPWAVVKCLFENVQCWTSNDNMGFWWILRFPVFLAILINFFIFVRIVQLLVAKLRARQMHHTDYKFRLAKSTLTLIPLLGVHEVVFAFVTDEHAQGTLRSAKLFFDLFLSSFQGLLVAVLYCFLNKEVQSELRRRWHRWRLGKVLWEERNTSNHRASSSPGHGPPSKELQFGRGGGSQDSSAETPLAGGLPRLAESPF
Chain of human GCG (glucagon) (P01275 53-81 limits assumed): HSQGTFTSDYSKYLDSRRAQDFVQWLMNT
Chain of human GLP2 (P01275 146-178 limits assumed): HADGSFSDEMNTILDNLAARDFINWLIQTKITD

Substance: Isotype control Ab (unconjugated; Q tag none or not stated) (antibody)
- CRE-luc EC50 [1]: > 300 nM
- CRE-luc EC50 [2]: > 300 nM
- CRE-luc EC50 [3]: > 300 nM
- CRE-luc EC50 [4]: > 300 nM
- CRE-luc EC50 [5]: > 300 nM

Substance: human GCG (glucagon) (from UniProt P01275 53-81) (ligand)
- CRE-luc EC50 [6]: > 200 nM
- CRE-luc EC50 [7]: > 200 nM
- CRE-luc EC50 [3]: > 30 nM
- CRE-luc EC50 [5]: > 30 nM

Substance: human GIP (from UniProt P09681 52-93) (ligand)
- CRE-luc EC50 [8]: > 200 nM
- CRE-luc EC50 [9]: > 200 nM
- CRE-luc EC50 [10]: > 200 nM
- CRE-luc EC50 [7]: > 200 nM
- CRE-luc EC50 [1]: > 30 nM
- CRE-luc EC50 [4]: > 30 nM
- CRE-luc EC50 [5]: > 30 nM

Substance: human GLP1 (reference ligand) (from UniProt P01275 98-128)
- CRE-luc EC50 [8]: > 200 nM
- CRE-luc EC50 [6]: > 200 nM
- CRE-luc EC50 [7]: > 200 nM
- CRE-luc EC50 [1]: > 30 nM
- CRE-luc EC50 [3]: > 30 nM
- CRE-luc EC50 [5]: > 30 nM

Substance: human GLP2 (from UniProt P01275 146-178) (ligand)
- CRE-luc EC50 [8]: > 200 nM
- CRE-luc EC50 [9]: > 200 nM
- CRE-luc EC50 [6]: > 200 nM
- CRE-luc EC50 [10]: > 200 nM
- CRE-luc EC50 [1]: > 30 nM
- CRE-luc EC50 [3]: > 30 nM
- CRE-luc EC50 [4]: > 30 nM
